Source: US20120172293A1 (Takeda / Millennium, published 2012)
Starred links: 1 amine or outer side, 2 acyl side, 3 side chain; linkers in the order of their positions; H or OH if unused. Non-standard residues stand in square brackets, D forms with d. Primed or numbered codes have the meaning given here. *: point of attachment. Ser(Me)(3) = methylserine, COC[C@H](N[*:1])C(=O)[*:2]; Ser(Me)″ = O-methylserine, COC[C@H](N[*:1])C(=O)[*:2]; Cha = N[C@@H](CC1CCCCC1)C(=O)O; Isobutyryl = CC(C)C(=O)*; NMeA = CN[C@@H](C)C(=O)O; dNMeA = CN[C@H](C)C(=O)O; Nva = CCC[C@H](N)C(=O)O; Abu = CC[C@H](N)C(=O)O; Nleu = CC(C)CNCC(=O)O; Aib = CC(C)(N)C(=O)O; Bz = O=C(c1ccccc1)*; Sar = CNCC(=O)O

B1: Isobutanoyl-[Abu26, Cha27,36, Ser28, Aib31]-PYY(25-36) (peptide)
peptide: Isobutyryl-R[Abu][Cha]SNL[Aib]TRQR[Cha]-NH2
SMILES: CC[C@H](NC(=O)[C@H](CCCNC(=N)N)NC(=O)C(C)C)C(=O)N[C@@H](CC1CCCCC1)C(=O)N[C@@H](CO)C(=O)N[C@@H](CC(N)=O)C(=O)N[C@@H](CC(C)C)C(=O)NC(C)(C)C(=O)N[C@H](C(=O)N[C@@H](CCCNC(=N)N)C(=O)N[C@@H](CCC(N)=O)C(=O)N[C@@H](CCCNC(=N)N)C(=O)N[C@@H](CC1CCCCC1)C(N)=O)[C@@H](C)O
B2: Benzoyl-[Nva27, Cha28,36, Aib31]-PYY(25-36) (peptide)
peptide: Bz-RH[Nva][Cha]NL[Aib]TRQR[Cha]-NH2
SMILES: CCC[C@H](NC(=O)[C@H](Cc1c[nH]cn1)NC(=O)[C@H](CCCNC(=N)N)NC(=O)c1ccccc1)C(=O)N[C@@H](CC1CCCCC1)C(=O)N[C@@H](CC(N)=O)C(=O)N[C@@H](CC(C)C)C(=O)NC(C)(C)C(=O)N[C@H](C(=O)N[C@@H](CCCNC(=N)N)C(=O)N[C@@H](CCC(N)=O)C(=O)N[C@@H](CCCNC(=N)N)C(=O)N[C@@H](CC1CCCCC1)C(N)=O)[C@@H](C)O
B3: Ac-[Abu23, D-Pro24, Abu26, Cha27,28,36, Aib31]-PYY(23-36) (peptide)
peptide: Ac-[Abu][dP]R[Abu][Cha][Cha]NL[Aib]TRQR[Cha]-NH2
SMILES: CC[C@H](NC(=O)[C@H](CCCNC(=N)N)NC(=O)[C@H]1CCCN1C(=O)[C@H](CC)NC(C)=O)C(=O)N[C@@H](CC1CCCCC1)C(=O)N[C@@H](CC1CCCCC1)C(=O)N[C@@H](CC(N)=O)C(=O)N[C@@H](CC(C)C)C(=O)NC(C)(C)C(=O)N[C@H](C(=O)N[C@@H](CCCNC(=N)N)C(=O)N[C@@H](CCC(N)=O)C(=O)N[C@@H](CCCNC(=N)N)C(=O)N[C@@H](CC1CCCCC1)C(N)=O)[C@@H](C)O
B4: Ac-[D-Ser23, Sar24, Cha27,28,36, Aib31]-PYY(23-36) (peptide)
peptide: Ac-[dS][Sar]RH[Cha][Cha]NL[Aib]TRQR[Cha]-NH2
SMILES: CC(=O)N[C@H](CO)C(=O)N(C)CC(=O)N[C@@H](CCCNC(=N)N)C(=O)N[C@@H](Cc1c[nH]cn1)C(=O)N[C@@H](CC1CCCCC1)C(=O)N[C@@H](CC1CCCCC1)C(=O)N[C@@H](CC(N)=O)C(=O)N[C@@H](CC(C)C)C(=O)NC(C)(C)C(=O)N[C@H](C(=O)N[C@@H](CCCNC(=N)N)C(=O)N[C@@H](CCC(N)=O)C(=O)N[C@@H](CCCNC(=N)N)C(=O)N[C@@H](CC1CCCCC1)C(N)=O)[C@@H](C)O
B5: Ac-[D-MeAla24, Cha27,28,36, Aib31]-PYY(23-36) (peptide)
peptide: Ac-S[dNMeA]RH[Cha][Cha]NL[Aib]TRQR[Cha]-NH2
SMILES: CC(=O)N[C@@H](CO)C(=O)N(C)[C@H](C)C(=O)N[C@@H](CCCNC(=N)N)C(=O)N[C@@H](Cc1c[nH]cn1)C(=O)N[C@@H](CC1CCCCC1)C(=O)N[C@@H](CC1CCCCC1)C(=O)N[C@@H](CC(N)=O)C(=O)N[C@@H](CC(C)C)C(=O)NC(C)(C)C(=O)N[C@H](C(=O)N[C@@H](CCCNC(=N)N)C(=O)N[C@@H](CCC(N)=O)C(=O)N[C@@H](CCCNC(=N)N)C(=O)N[C@@H](CC1CCCCC1)C(N)=O)[C@@H](C)O
B6: Ac-[D-Ser23, MeAla24, Cha27,28,36, Aib31]-PYY(23-36) (peptide)
peptide: Ac-[dS][NMeA]RH[Cha][Cha]NL[Aib]TRQR[Cha]-NH2
SMILES: CC(=O)N[C@H](CO)C(=O)N(C)[C@@H](C)C(=O)N[C@@H](CCCNC(=N)N)C(=O)N[C@@H](Cc1c[nH]cn1)C(=O)N[C@@H](CC1CCCCC1)C(=O)N[C@@H](CC1CCCCC1)C(=O)N[C@@H](CC(N)=O)C(=O)N[C@@H](CC(C)C)C(=O)NC(C)(C)C(=O)N[C@H](C(=O)N[C@@H](CCCNC(=N)N)C(=O)N[C@@H](CCC(N)=O)C(=O)N[C@@H](CCCNC(=N)N)C(=O)N[C@@H](CC1CCCCC1)C(N)=O)[C@@H](C)O
B7: Benzoyl-[His27, Cha28,36, Aib31]-PYY(25-36) (peptide)
peptide: Bz-RHH[Cha]NL[Aib]TRQR[Cha]-NH2
SMILES: CC(C)C[C@H](NC(=O)[C@H](CC(N)=O)NC(=O)[C@H](CC1CCCCC1)NC(=O)[C@H](Cc1c[nH]cn1)NC(=O)[C@H](Cc1c[nH]cn1)NC(=O)[C@H](CCCNC(=N)N)NC(=O)c1ccccc1)C(=O)NC(C)(C)C(=O)N[C@H](C(=O)N[C@@H](CCCNC(=N)N)C(=O)N[C@@H](CCC(N)=O)C(=O)N[C@@H](CCCNC(=N)N)C(=O)N[C@@H](CC1CCCCC1)C(N)=O)[C@@H](C)O
B8: Ac-[Phe23, D-Pro24, Abu26, Cha27,28,36, Aib31]-PYY(23-36) (peptide)
peptide: Ac-F[dP]R[Abu][Cha][Cha]NL[Aib]TRQR[Cha]-NH2
SMILES: CC[C@H](NC(=O)[C@H](CCCNC(=N)N)NC(=O)[C@H]1CCCN1C(=O)[C@H](Cc1ccccc1)NC(C)=O)C(=O)N[C@@H](CC1CCCCC1)C(=O)N[C@@H](CC1CCCCC1)C(=O)N[C@@H](CC(N)=O)C(=O)N[C@@H](CC(C)C)C(=O)NC(C)(C)C(=O)N[C@H](C(=O)N[C@@H](CCCNC(=N)N)C(=O)N[C@@H](CCC(N)=O)C(=O)N[C@@H](CCCNC(=N)N)C(=O)N[C@@H](CC1CCCCC1)C(N)=O)[C@@H](C)O
B9: Ac-[Ser(Me)23, D-Pro24, Abu26, Cha27,28,36, Aib31]-PYY(23-36) (peptide)
peptide: Ac-[Ser(Me)(3)][dP]R[Abu][Cha][Cha]NL[Aib]TRQR[Cha]-NH2
SMILES: CC[C@H](NC(=O)[C@H](CCCNC(=N)N)NC(=O)[C@H]1CCCN1C(=O)[C@H](COC)NC(C)=O)C(=O)N[C@@H](CC1CCCCC1)C(=O)N[C@@H](CC1CCCCC1)C(=O)N[C@@H](CC(N)=O)C(=O)N[C@@H](CC(C)C)C(=O)NC(C)(C)C(=O)N[C@H](C(=O)N[C@@H](CCCNC(=N)N)C(=O)N[C@@H](CCC(N)=O)C(=O)N[C@@H](CCCNC(=N)N)C(=O)N[C@@H](CC1CCCCC1)C(N)=O)[C@@H](C)O
B10: Ac-[N(iBu)Gly24, Cha27,28,36, Aib31]-PYY(23-36) (peptide)
peptide: Ac-S[Nleu]RH[Cha][Cha]NL[Aib]TRQR[Cha]-NH2
SMILES: CC(=O)N[C@@H](CO)C(=O)N(CC(=O)N[C@@H](CCCNC(=N)N)C(=O)N[C@@H](Cc1c[nH]cn1)C(=O)N[C@@H](CC1CCCCC1)C(=O)N[C@@H](CC1CCCCC1)C(=O)N[C@@H](CC(N)=O)C(=O)N[C@@H](CC(C)C)C(=O)NC(C)(C)C(=O)N[C@H](C(=O)N[C@@H](CCCNC(=N)N)C(=O)N[C@@H](CCC(N)=O)C(=O)N[C@@H](CCCNC(=N)N)C(=O)N[C@@H](CC1CCCCC1)C(N)=O)[C@@H](C)O)CC(C)C
B11: Benzoyl-[Ser(Me)26, Cha27,28,36, Aib31]-PYY(25-36) (peptide)
peptide: Bz-R[Ser(Me)″][Cha][Cha]NL[Aib]TRQR[Cha]-NH2
SMILES: COC[C@H](NC(=O)[C@H](CCCNC(=N)N)NC(=O)c1ccccc1)C(=O)N[C@@H](CC1CCCCC1)C(=O)N[C@@H](CC1CCCCC1)C(=O)N[C@@H](CC(N)=O)C(=O)N[C@@H](CC(C)C)C(=O)NC(C)(C)C(=O)N[C@H](C(=O)N[C@@H](CCCNC(=N)N)C(=O)N[C@@H](CCC(N)=O)C(=O)N[C@@H](CCCNC(=N)N)C(=O)N[C@@H](CC1CCCCC1)C(N)=O)[C@@H](C)O
B12: Isobutanoyl-[Abu26, Cha27,36, Gln28, Aib31]-PYY(25-36) (peptide)
peptide: Isobutyryl-R[Abu][Cha]QNL[Aib]TRQR[Cha]-NH2
SMILES: CC[C@H](NC(=O)[C@H](CCCNC(=N)N)NC(=O)C(C)C)C(=O)N[C@@H](CC1CCCCC1)C(=O)N[C@@H](CCC(N)=O)C(=O)N[C@@H](CC(N)=O)C(=O)N[C@@H](CC(C)C)C(=O)NC(C)(C)C(=O)N[C@H](C(=O)N[C@@H](CCCNC(=N)N)C(=O)N[C@@H](CCC(N)=O)C(=O)N[C@@H](CCCNC(=N)N)C(=O)N[C@@H](CC1CCCCC1)C(N)=O)[C@@H](C)O
B13: Benzoyl-[Asn26, Cha27,28,36, Aib31]-PYY(25-36) (peptide)
peptide: Bz-RN[Cha][Cha]NL[Aib]TRQR[Cha]-NH2
SMILES: CC(C)C[C@H](NC(=O)[C@H](CC(N)=O)NC(=O)[C@H](CC1CCCCC1)NC(=O)[C@H](CC1CCCCC1)NC(=O)[C@H](CC(N)=O)NC(=O)[C@H](CCCNC(=N)N)NC(=O)c1ccccc1)C(=O)NC(C)(C)C(=O)N[C@H](C(=O)N[C@@H](CCCNC(=N)N)C(=O)N[C@@H](CCC(N)=O)C(=O)N[C@@H](CCCNC(=N)N)C(=O)N[C@@H](CC1CCCCC1)C(N)=O)[C@@H](C)O
B14: Isobutanoyl-[Abu26, Cha27,36, His28, Aib31]-PYY(25-36) (peptide)
peptide: Isobutyryl-R[Abu][Cha]HNL[Aib]TRQR[Cha]-NH2
SMILES: CC[C@H](NC(=O)[C@H](CCCNC(=N)N)NC(=O)C(C)C)C(=O)N[C@@H](CC1CCCCC1)C(=O)N[C@@H](Cc1c[nH]cn1)C(=O)N[C@@H](CC(N)=O)C(=O)N[C@@H](CC(C)C)C(=O)NC(C)(C)C(=O)N[C@H](C(=O)N[C@@H](CCCNC(=N)N)C(=O)N[C@@H](CCC(N)=O)C(=O)N[C@@H](CCCNC(=N)N)C(=O)N[C@@H](CC1CCCCC1)C(N)=O)[C@@H](C)O

Key:
[1] = target: human Y2 receptor (human) (UniProt P49146); test: cell-based or functional assay
human Y2 receptor (human), sequence (P49146 whole entry): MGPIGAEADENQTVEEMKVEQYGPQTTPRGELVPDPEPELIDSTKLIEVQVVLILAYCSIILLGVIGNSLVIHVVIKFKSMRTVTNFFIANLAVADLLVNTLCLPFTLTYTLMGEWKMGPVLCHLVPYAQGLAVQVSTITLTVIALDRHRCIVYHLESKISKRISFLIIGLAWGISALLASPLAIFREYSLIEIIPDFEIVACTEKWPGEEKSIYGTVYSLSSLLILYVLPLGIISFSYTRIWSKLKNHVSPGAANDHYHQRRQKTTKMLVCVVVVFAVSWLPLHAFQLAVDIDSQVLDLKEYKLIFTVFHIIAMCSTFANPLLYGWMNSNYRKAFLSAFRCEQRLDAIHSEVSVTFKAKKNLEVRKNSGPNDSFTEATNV

[2] = target: human Y2 receptor (human) (UniProt P49146); test: RBA: [125I]-PYY displacement, hY2R/CHO membranes

Molecule | GBA EC50 Ratio (vs PYY(3-36)), [35S]GTPγS [1] | IC50 Ratio (vs PYY(3-36)) [2]
[N(iBu)Gly23, D-Pro24, Cha27,28,36, Aib31]-PYY(23-36) (peptide) | 2.4 | 5.8
B1 | 35 | 49
B2 | 8.6 | 13
B3 | 4 | 6.9
B4 | 5.3 | 6.6
B5 | 2.2 | 3.4
B6 | 5.1 | 6.1
B7 | 4.3 | 5.6
B8 | 5.9 | 12
B9 | 3.8 | 5.2
B10 | 8.4 | 20
B11 | 8.7 | 18
B12 | 30 | 45
B13 | 21 | 19
B14 | 13 | 19
